The target of the assay is purified recombinant PAPP-A free of STC2 (apo PAPP-A) (human) (UniProt Q13219). The assay is described as follows: MST.
The term Kd denotes the free concentration of one partner at which half of the binding sites on the other are occupied at equilibrium, for simple one-to-one binding. Regarding “4P1, peptide from the linker region of IGFBP4 (from UniProt P22692)”, the Kd was 1.73 µM.
In the case of “4P2, peptide from the linker region of IGFBP4 (from UniProt P22692)”, the Kd was 27.5 µM.
“4P3, peptide from the linker region of IGFBP4 (from UniProt P22692)”: the Kd came out at 162 µM.
Then “5P1, peptide from the linker region of IGFBP5 (from UniProt P24593)”, with 4.43 µM.
As for “5P2, peptide from the linker region of IGFBP5 (from UniProt P24593)”, the figure is 17.3 µM.
For “5P3, peptide from the linker region of IGFBP5 (from UniProt P24593)”, the Kd came to 38 µM.

Values taken from publication PMC9780223.
